The stoichiometry N is the number of molecules, sites or subunits per partner or assembly.

The data set concerns the molecule itself. In words: SEC; purified recombinant His-tagged ASK13; Superose 6 column by the legend; fractions confirmed by dot blot with an anti-His antibody.

B1: Recombinant His-tagged ASK13 (natural protein, Arabidopsis thaliana, UniProt Q9M1X5 1-154, looked up)
chain: MSKMVMLLSSDGESFQVEEAVAVQSQTIAHMIEDDCVANGVPIANVTGVILSKVIEYCKKHVVSDSPTEESKDELKKWDAEFMKALEQSSTLFDVMLAANYLNIKDLLDLGCQTVADMITGKKPDEIRALLGIENDFTPEEEEEIRKENQWAFE
notes: ASK13 (SKP1-like protein13), Arabidopsis thaliana, At3g60010; sub-cloned into pET23d; Found as monomer and dimer; also called recombinant ASK13; his-tagged ASK13 protein; not shown: His tag, C-terminal, kept
Regarding B1, the “stoichiometry N” value stood at 2.
